{"source": "paper PMC3458112", "about": "“The VP3 Factor from Viruses of Birnaviridae Family Suppresses RNA Silencing by Binding Both Long and Small RNA Duplexes” (PLoS ONE, 2012)", "molecules": {"B1": {"name": "6xHis-tagged full-length IBDV VP3 (wild type) (natural protein)", "chain": "ASEFKETPELESAVRAMEAAANVDPLFQSALSVFMWLEENGIVTDMANFALSDPNAHRMRNFLANAPQAGSKSQRAKYGTAGYGVEARGPTPEEAQREKDTRISKKMETMGIYFATPEWVALNGHRGPSPGQVKYWQNKREIPDPNEDYLDYVHAEKSRLASEEQILRAATSIYGAPGQAEPPQAFIDEVAKVYEINHGRGPNQEQMKDLLLTAMEMKHRNPRRALPKPKPKPNAPTQRPPGRLGRWIRTVSDEDLE", "notes": "VP3 of Infectious bursal disease virus (IBDV), the cut product of the viral polyprotein (pVP2-VP4-VP3); numbers count on: the VP3 polypeptide itself (C-terminal region printed as 222-258), not the polyprotein; also called VP3 WT; wild type IBDV VP3"}}, "experiment_in_all_cases": "SEC; analytical gel filtration of affinity-purified 6xHis-tagged VP3s, Superdex-200 5/150 calibrated with catalase, serum albumin, ovoalbumine and chymotrypsinogen A; 20 mM Tris-HCl pH 7.5, 150 mM NaCl, 4°C, 0.5 ml/min", "key": {"[1]": {"target": "6xHis-tagged IBDV VP3 Patch1 mutant (K99D, R102D, K105D, K106D) (Infectious bursal disease virus (IBDV))"}, "[2]": {"target": "6xHis-tagged IBDV VP3 Patch2 mutant (R159D, R168D, H198D, R200D) (Infectious bursal disease virus (IBDV))"}, "[3]": {"target": "the molecule itself"}}}
{"molecule": "6xHis-tagged IBDV VP3 Patch1 mutant (K99D, R102D, K105D, K106D) (natural protein)", "values": [{"measurement": "stoichiometry N", "setting": "[1]", "value": 2}]}
{"molecule": "6xHis-tagged IBDV VP3 Patch2 mutant (R159D, R168D, H198D, R200D) (natural protein)", "values": [{"measurement": "stoichiometry N", "setting": "[2]", "value": 2}]}
{"molecule": "B1", "values": [{"measurement": "stoichiometry N", "setting": "[3]", "value": 2}]}
